In publication PMC2962499:

Target: fluorescently labeled SpRpn12 (Schizosaccharomyces pombe) (UniProt P50524)
Assay: fluorescence polarisation

B1: SpRpn10 residues 196-243 (UIM-containing C-terminal sequence) (domain or fragment)
chain: NQFEYGVDPNLDVELALALELSMAEERARQEVAAQKSSEETEDKKMQE
Kd: 18 µM
